In the assay the target is human insulin receptor fused with Renilla luciferase 8 (human) (UniProt P06213).

For bovine insulin (ligand), the EC50 of insulin for the insulin-induced BRET increase between hIR–Rluc8 and Grb2–Venus (m1 + m3), live HEK293 cells, insulin 0.001-10,000 nM worked out at 4.4 nM; the EC50 of insulin for the insulin-induced BRET increase between hIR–Rluc8 and IRS1–YFP (m1 + m2), live HEK293 cells, insulin 0.001-10,000 nM amounted to 2.2 nM.

The values are drawn from article PMC4728290.
